Reference: patent publication US20250296971A1, “GASTRIC INHIBITORY PEPTIDE RECEPTOR LIGANDS” (priority 2021, published 2025)
*1 amine or outer side, *2 acyl side, *3 side chain or, on linkers, in order; H or OH if unused. Bridges are numbered along the chain shown (N, C = ends). [ ]: non-standard residue; d: D form. The star is where a group is joined. Ttds = 1,13-diamino-4,7,10-trioxatridecan-succinamic acid, NCCCOCCOCCOCCCNC(=O)CCC(=O)*; DOTA(Ga) = O=C1CN2CCN3CCN(CC(=O)*)CCN(CC2)CC(=O)[O][Ga]([O]1)[O]C(=O)C3; DOTA(Lu) = O=C1CN2CCN3CCN(CC(=O)*)CCN(CC2)CC(=O)[O][Lu]([O]1)[O]C(=O)C3; dE(AGLU) = D-glutamic acid bearing 1-amino-1-deoxy-D-glucitol; Pro(trans-4-NH2) = O=C([C@@H]1C[C@@H](N[*:3])CN1[*:1])[*:2]; DOTA = O=C(O)CN1CCN(CC(=O)O)CCN(CC(=O)*)CCN(CC(=O)O)CC1; 2Lut = 2,6-lutidylidene bridge between two thiols; Trp(5-Br) = N[C@@H](Cc1c[nH]c2ccc(Br)cc12)C(=O)O; Trp(5-Cl) = N[C@@H](Cc1c[nH]c2ccc(Cl)cc12)C(=O)O; Pyridine(2,6-diCH2) = c1cc(C[*:1])nc(C[*:2])c1; APAc = 4-amino-1-carboxymethylpiperidine; Pro(4S-NH2) = N[C@@H]1CN[C@H](C(=O)O)C1; mXylylene = c1cc(C[*:1])cc(C[*:2])c1; Glutaryl = O=C(CCCC(=O)[*:2])[*:1]; AGLU = 1-amino-1-deoxy-D-glucitol; Hyp = O=C(O)[C@@H]1C[C@@H](O)CN1; Cysteamide = C(CS[*:3])N[*:1]; dGlu(AGLU) = not defined here; Suc = O=C(CCC(=O)[*:2])[*:1]; GLUSEROL = not defined here; hSer = N[C@@H](CCO)C(=O)O; Api = NC1(C(=O)O)CCNCC1; Thp = NC1(C(=O)O)CCOCC1; Aib = CC(C)(N)C(=O)O

B1: Ac-Asp-Trp-5Clw-Hyp-Hse-leu-[Cys(2Lut)-Thp-Leu-Ile-Cys]-NH2 (peptide)
peptide: Ac-DW[Trp(5-Cl)][Hyp][hSer][dL]C[Thp]LIC-NH2
modifications: linker 7-11 via Pyridine(2,6-diCH2)
SMILES: CC[C@H](C)[C@@H]1NC(=O)[C@H](CC(C)C)NC(=O)C2(CCOCC2)NC(=O)[C@@H](NC(=O)[C@@H](CC(C)C)NC(=O)[C@H](CCO)NC(=O)[C@@H]2C[C@@H](O)CN2C(=O)[C@H](Cc2c[nH]c3ccc(Cl)cc23)NC(=O)[C@H](Cc2c[nH]c3ccccc23)NC(=O)[C@H](CC(=O)O)NC(C)=O)CSCc2cccc(n2)CSC[C@@H](C(N)=O)NC1=O
B2: AGLU-Glutar-Asp-Trp-5Clw-Hyp-Glu-leu-[Cys(2Lut)-Apc(DOTA)-Leu-Ile-Cys]-APAc-glu(AGLU)-NH2 (peptide)
peptide: DWXXEXCXLIC
modifications: AGLU-Glutar; 5Clw; Hyp; D-leu; Apc(DOTA); 2Lut bridge Cys-Cys; APAc; D-glu(AGLU); C-term NH2
B3: Ac-Hse-Trp-5Brw-Hyp-Glu-leu-[Cys(2Lut)-Thp-Leu-Ile-Cys]-NH2 (peptide)
peptide: Ac-[hSer]W[Trp(5-Br)][Hyp]E[dL]C[Thp]LIC-NH2
modifications: linker 7-11 via Pyridine(2,6-diCH2)
SMILES: CC[C@H](C)[C@@H]1NC(=O)[C@H](CC(C)C)NC(=O)C2(CCOCC2)NC(=O)[C@@H](NC(=O)[C@@H](CC(C)C)NC(=O)[C@H](CCC(=O)O)NC(=O)[C@@H]2C[C@@H](O)CN2C(=O)[C@H](Cc2c[nH]c3ccc(Br)cc23)NC(=O)[C@H](Cc2c[nH]c3ccccc23)NC(=O)[C@H](CCO)NC(C)=O)CSCc2cccc(n2)CSC[C@@H](C(N)=O)NC1=O
B4: DOTA-Ttds-Asp-Trp-5Clw-Pro-Glu-leu-[Cys(3MeBn)-Aib-Leu-Ile-AET] (peptide)
peptide: {DOTA-Ttds}-DW[Trp(5-Cl)]PE[dL]C[Aib]LI[Cysteamide]
modifications: linker (positions not given here) via mXylylene; not fully specified (bridges); printed as DOTA-Ttds-Asp-Trp-5Clw-Pro-Glu-leu-[Cys(3MeBn)-Aib-Leu-Ile-AET]
B5: HO-Succinyl-Trp-5Clw-Hyp-Glu-leu-[Cys(2Lut)-Thp-Leu-Ile-Cys]-APAc-glu(AGLU)-Lys(DOTA)-NH2 (peptide)
peptide: Suc-W[Trp(5-Cl)][Hyp]E[dL]C[Thp]LIC-{APAc-dGlu(AGLU)-Lys(DOTA)-NH2}
modifications: linker 6-10 via 2Lut; reading uncertain; also: printed as HO-Succinyl-Trp-5Clw-Hyp-Glu-leu-[Cys(2Lut)-Thp-Leu-Ile-Cys]-APAc-glu(AGLU)-Lys(DOTA)-NH2

Key:
[1] = target: biotinylated extracellular domain of the human GIP receptor (bioGIPR) (human) (UniProt P48546); assay: SPR single cycle kinetics, bioGIPR captured on chip; category A: t1/2 >15 min
[2] = target: human Gastric Inhibitory Peptide Receptor (human) (UniProt P48546); assay: FACS competition with GIP-057 on CHO-K1-hGIPR cells; pIC50 category A: >8.0
[3] = target: biotinylated extracellular domain of the human GIP receptor (bioGIPR) (human) (UniProt P48546); assay: SPR single cycle kinetics, bioGIPR captured on chip; category A: pKD >9.0
[4] = target: human Gastric Inhibitory Peptide Receptor (GIPR) (human) (UniProt P48546); assay: FACS competition vs biotinylated GIP-057 on CHO-K1-hGIPR cells; category A: pIC50 >8.0
Chain of human Gastric Inhibitory Peptide Receptor (GIPR) (human) (P48546 22-466 limits assumed): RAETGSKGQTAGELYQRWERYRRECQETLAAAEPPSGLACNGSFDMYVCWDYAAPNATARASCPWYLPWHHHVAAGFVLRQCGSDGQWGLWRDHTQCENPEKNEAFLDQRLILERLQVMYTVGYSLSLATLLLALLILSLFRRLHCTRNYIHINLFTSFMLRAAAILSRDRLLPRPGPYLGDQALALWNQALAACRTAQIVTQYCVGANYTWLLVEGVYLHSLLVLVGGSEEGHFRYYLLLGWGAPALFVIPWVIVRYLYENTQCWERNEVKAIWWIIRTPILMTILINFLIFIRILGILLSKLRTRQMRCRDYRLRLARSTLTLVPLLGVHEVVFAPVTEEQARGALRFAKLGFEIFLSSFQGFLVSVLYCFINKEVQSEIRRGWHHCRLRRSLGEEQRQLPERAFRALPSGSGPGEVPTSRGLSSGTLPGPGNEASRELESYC

Chain of human Gastric Inhibitory Peptide Receptor (human) (P48546 22-466 limits assumed): as above
Chain of biotinylated extracellular domain of the human GIP receptor (bioGIPR) (human) (P48546 24-138 limits assumed): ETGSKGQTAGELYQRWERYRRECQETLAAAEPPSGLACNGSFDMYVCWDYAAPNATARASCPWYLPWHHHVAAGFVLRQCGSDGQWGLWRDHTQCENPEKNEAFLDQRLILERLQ

Binder	t1/2 [1] [min]	pIC50 [2] [pic50]	pKD [3] [pkd]	pIC50 [4] [pic50]
{AGLU-Glutaryl}-DW[Trp(5-Cl)][Pro(trans-4-NH2)]E[dL]C[Api](DOTA(Lu))LIC-{APAc-dE(AGLU)-NH2} (linker 7-11 via Pyridine(2,6-diCH2)) [AGLU-Glutar-Asp-Trp-5Clw-Tap-Glu-leu-[Cys(2Lut)-Apc(LuDOTA)-Leu-Ile-Cys]-APAc-glu(AGLU)-NH2]	> 15	> 8	> 9	–
B1	> 15	> 8	> 9	–
{DOTA-dE(AGLU)-APAc}-DW[Trp(5-Cl)][Hyp]E[dL]C[Thp]LIC-{APAc-dE(AGLU)-NH2} (linker 7-11 via Pyridine(2,6-diCH2)) [DOTA-glu(AGLU)-APAc-Asp-Trp-5Clw-Hyp-Glu-leu-[Cys(2Lut)-Thp-Leu-Ile-Cys]-APAc-glu(AGLU)-NH2]	> 15	> 8	> 9	–
B2	> 15	> 8	> 9	–
B3	> 15	> 8	> 9	–
{AGLU-Glutaryl}-DW[Trp(5-Cl)][Pro(trans-4-NH2)]E[dL]C[Api](DOTA(Ga))LIC-{APAc-dE(AGLU)-NH2} (linker 7-11 via Pyridine(2,6-diCH2)) [AGLU-Glutar-Asp-Trp-5Clw-Tap-Glu-leu-[Cys(2Lut)-Apc(GaDOTA)-Leu-Ile-Cys]-APAc-glu(AGLU)-NH2]	> 15	> 8	> 9	–
{DOTA-Ttds}-DW[Trp(5-Cl)][Pro(trans-4-NH2)]E[dL]C[Aib]LI[Cysteamide] (linker 7-11 via mXylylene) [DOTA-Ttds-Asp-Trp-5Clw-Tap-Glu-leu-[Cys(3MeBn)-Aib-Leu-Ile-AET]]	> 15	> 8	> 9	–
{AGLU-Glutaryl}-DW[Trp(5-Cl)][Pro(trans-4-NH2)]E[dL]C[Api](DOTA)LIC-{APAc-GLUSEROL} (linker 7-11 via Pyridine(2,6-diCH2); reading uncertain) [AGLU-Glutar-Asp-Trp-5Clw-Tap-Glu-leu-[Cys(2Lut)-Apc(DOTA)-Leu-Ile-Cys]-APAc-GLUSEROL]	> 15	–	> 9	> 8
B4	> 15	> 8	> 9	–
{DOTA-Ttds}-DW[Trp(5-Cl)][Pro(4S-NH2)]E[dL]C[Aib]LI[Cysteamide] (linker 7-11 via mXylylene) [DOTA-Ttds-Asp-Trp-5Clw-4Ap-Glu-leu-[Cys(3MeBn)-Aib-Leu-Ile-AET]]	> 15	> 8	> 9	–
B5	> 15	> 8	> 9	–
{AGLU-Glutaryl}-DW[Trp(5-Cl)][Pro(trans-4-NH2)]E[dL]C[Api](DOTA)LIC-{APAc-dE(AGLU)-NH2} (linker 7-11 via Pyridine(2,6-diCH2)) [AGLU-Glutar-Asp-Trp-5Clw-Tap-Glu-leu-[Cys(2Lut)-Apc(DOTA)-Leu-Ile-Cys]-APAc-glu(AGLU)-NH2]	> 15	> 8	> 9	–
